The text below walks through data of patent publication US20050048527.

For data set [1], the target named is MAM FEN1 (arch swap chimera) (Methanococcus jannaschii / Archaeoglobus fulgidus?) (UniProt Q58839). In words: cleavage_in_vitro. Particulars: rate vs Pfu FEN1.
For data set [2], the target named is MPM FEN1 (arch swap chimera) (Methanococcus jannaschii / Pyrococcus furiosus?) (UniProt Q58839). In words: cleavage_in_vitro. As to conditions: rate vs Pfu FEN1.
Data set [3] addresses Mja + P16 FEN1 (loop swap chimera) (Methanococcus jannaschii / Pyrococcus furiosus?) (UniProt Q58839). In words: cleavage_in_vitro. As to conditions: rate vs Pfu FEN1.
Data set [4] deals with PAP FEN1 (arch swap chimera) (Pyrococcus furiosus / Archaeoglobus fulgidus?) (UniProt O93634). In words: cleavage_in_vitro. Particulars: rate vs Pfu FEN1.
The target of data set [5] is PMP FEN1 (arch swap chimera) (UniProt O93634). In words: cleavage_in_vitro. As to conditions: rate vs Pfu FEN1.
Data set [6] deals with Pfu + M4 FEN1 (loop swap chimera) (UniProt O93634). In words: cleavage_in_vitro. Particulars: rate vs Pfu FEN1.
Data set [7] has as its target T1, Mja FEN1 (Methanococcus jannaschii) (UniProt Q58839).
T1 sequence: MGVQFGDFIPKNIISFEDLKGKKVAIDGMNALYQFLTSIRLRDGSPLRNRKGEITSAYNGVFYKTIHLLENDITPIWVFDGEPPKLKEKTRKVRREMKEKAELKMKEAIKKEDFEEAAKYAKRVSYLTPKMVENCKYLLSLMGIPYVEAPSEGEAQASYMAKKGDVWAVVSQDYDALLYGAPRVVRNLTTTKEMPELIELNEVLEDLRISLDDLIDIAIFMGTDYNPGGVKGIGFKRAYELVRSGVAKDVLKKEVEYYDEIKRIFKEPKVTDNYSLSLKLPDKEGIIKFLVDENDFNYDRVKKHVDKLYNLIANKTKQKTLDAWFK
In words: cleavage_in_vitro. As to conditions: turnover.

Data set [8] addresses T2, Pfu FEN1 (Pyrococcus furiosus) (UniProt O93634).
T2 sequence: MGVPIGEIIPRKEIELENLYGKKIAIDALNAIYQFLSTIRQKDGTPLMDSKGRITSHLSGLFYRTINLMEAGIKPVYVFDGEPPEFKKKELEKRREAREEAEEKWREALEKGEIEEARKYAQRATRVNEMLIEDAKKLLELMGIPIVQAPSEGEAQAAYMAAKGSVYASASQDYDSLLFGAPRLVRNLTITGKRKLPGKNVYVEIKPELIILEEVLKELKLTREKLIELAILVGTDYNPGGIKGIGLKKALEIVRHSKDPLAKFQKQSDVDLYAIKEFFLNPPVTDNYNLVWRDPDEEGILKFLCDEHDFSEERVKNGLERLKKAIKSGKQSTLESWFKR
In words: cleavage_in_vitro. As to conditions: turnover.

In data set [9] the target is CLEAVASE A/G nuclease (Thermus aquaticus) (UniProt P19821). In words: cleavage_in_vitro. As to conditions: probe cleaved in 30 min.
CLEAVASE A/G nuclease (Thermus aquaticus), sequence (P19821 whole entry): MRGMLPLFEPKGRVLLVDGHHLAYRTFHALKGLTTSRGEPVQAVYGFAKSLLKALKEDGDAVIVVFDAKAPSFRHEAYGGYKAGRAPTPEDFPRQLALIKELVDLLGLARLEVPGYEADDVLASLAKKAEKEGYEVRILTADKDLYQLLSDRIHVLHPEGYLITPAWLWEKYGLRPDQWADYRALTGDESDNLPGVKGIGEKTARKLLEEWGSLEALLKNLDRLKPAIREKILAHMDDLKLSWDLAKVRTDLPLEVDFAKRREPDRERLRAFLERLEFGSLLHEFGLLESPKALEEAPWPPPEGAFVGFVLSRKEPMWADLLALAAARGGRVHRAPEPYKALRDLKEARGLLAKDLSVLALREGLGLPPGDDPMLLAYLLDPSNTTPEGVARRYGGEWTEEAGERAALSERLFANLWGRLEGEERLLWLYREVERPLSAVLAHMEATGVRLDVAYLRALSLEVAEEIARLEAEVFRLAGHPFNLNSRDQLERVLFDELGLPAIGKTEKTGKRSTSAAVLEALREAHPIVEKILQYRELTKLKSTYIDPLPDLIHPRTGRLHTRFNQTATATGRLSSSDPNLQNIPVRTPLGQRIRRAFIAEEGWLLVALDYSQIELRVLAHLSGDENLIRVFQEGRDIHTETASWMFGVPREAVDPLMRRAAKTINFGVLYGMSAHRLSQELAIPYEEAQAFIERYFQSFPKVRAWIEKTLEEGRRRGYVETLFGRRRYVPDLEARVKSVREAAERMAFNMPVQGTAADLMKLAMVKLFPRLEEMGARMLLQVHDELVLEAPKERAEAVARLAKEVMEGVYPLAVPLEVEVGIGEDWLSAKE
Data set [10] has as its target DNAPTth (Thermus thermophilus) (UniProt P52028). In words: cleavage_in_vitro. As to conditions: probe cleaved in 30 min.
The test system of data set [11] is Thermus aquaticus DNA polymerase.
Thermus aquaticus DNA polymerase, sequence (chain, as listed by the source): as the sequence (P19821 whole entry) above
Data set [12] relates to CLEAVASE BN/thrombin nuclease.
CLEAVASE BN/thrombin nuclease, sequence (chain, as listed by the source): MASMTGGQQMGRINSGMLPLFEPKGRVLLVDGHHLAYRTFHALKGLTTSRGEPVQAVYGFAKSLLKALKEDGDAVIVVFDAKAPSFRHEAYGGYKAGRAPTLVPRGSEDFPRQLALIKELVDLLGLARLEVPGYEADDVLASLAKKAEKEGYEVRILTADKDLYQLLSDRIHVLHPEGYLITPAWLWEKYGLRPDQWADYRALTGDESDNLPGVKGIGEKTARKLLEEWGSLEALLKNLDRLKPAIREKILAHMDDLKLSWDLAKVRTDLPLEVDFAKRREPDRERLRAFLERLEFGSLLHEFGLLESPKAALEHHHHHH

CLEAVASE BN nuclease, sequence (chain, as listed by the source): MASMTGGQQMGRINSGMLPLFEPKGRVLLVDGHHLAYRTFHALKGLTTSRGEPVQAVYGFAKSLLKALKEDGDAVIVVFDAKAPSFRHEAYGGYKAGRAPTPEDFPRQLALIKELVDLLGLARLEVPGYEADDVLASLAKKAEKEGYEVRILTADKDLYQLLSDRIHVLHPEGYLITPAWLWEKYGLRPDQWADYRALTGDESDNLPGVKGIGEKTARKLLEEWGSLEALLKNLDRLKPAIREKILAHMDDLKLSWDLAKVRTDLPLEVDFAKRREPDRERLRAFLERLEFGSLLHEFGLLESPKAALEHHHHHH
DNAPTth (Thermus thermophilus), sequence (P52028 whole entry): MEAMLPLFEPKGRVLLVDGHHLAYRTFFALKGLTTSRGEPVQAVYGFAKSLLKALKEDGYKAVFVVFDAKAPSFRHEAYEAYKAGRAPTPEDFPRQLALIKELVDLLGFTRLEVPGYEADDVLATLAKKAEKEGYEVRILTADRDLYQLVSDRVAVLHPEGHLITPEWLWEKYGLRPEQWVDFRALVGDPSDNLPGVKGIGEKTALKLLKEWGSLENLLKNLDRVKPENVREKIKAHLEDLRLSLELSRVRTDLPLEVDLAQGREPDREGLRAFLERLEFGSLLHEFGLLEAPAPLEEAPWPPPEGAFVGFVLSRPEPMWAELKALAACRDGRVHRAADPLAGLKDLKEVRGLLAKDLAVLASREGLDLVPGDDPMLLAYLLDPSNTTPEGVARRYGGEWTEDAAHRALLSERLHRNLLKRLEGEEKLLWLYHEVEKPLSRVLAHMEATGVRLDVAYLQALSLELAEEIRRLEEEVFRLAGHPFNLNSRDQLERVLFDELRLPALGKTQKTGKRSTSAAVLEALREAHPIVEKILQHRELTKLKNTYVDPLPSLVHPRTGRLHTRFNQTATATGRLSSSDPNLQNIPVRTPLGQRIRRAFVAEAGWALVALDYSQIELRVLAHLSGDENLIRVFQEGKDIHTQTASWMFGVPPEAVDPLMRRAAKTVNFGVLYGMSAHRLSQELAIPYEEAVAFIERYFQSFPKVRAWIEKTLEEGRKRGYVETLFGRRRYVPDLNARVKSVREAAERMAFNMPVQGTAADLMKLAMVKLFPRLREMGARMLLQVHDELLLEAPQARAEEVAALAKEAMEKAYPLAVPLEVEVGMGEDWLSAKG

Consider “TTTTTCACGGCAGTTGGTGCGCCTCGGAACGAGGCGCACA / TTTTCAACTGCCGTGA [INVADER substrate 594-12-1/203-91-1]”, for which the cleavage rate was determined as 0.03 in data set [1]; 0.14 in data set [2]; 1.2 in data set [3]; 0.56 in data set [4]; 2.4 in data set [5]; 0.05 in data set [6].

On to duplex length 6 substrate, for which the figures for the activity in [7] and in data set [8] were 51 per min and 44 per min, respectively.

As for “TTTTCAACTGCTTAGAGAATCTAAGCAGTTGGTGCGCCTCGTTAA / AACGAGGCGCACATT [X-structure 203-81-2/203-91-2]”, the cleavage rate in data set [1] (3'-NH2 on first strand) was found to be 0.07; in [2] (3'-NH2 on first strand), 0.1; in data set [3] (3'-NH2 on first strand), 59; in data set [4] (3'-NH2 on first strand), 0.52; in data set [5] (3'-NH2 on first strand) it was 1.37; in data set [6] (3'-NH2 on first strand) it was 0.28.

Take duplex length 8 substrate: the figures for the activity in [7] and in data set [8] were 46 per min and 45 per min, respectively.

As for “CCGGTCGTCCTGGCAATXCC / GTTTATCCAAGAAAGGACCCGGTC [HCV RNA target/probe/INVADER (DNA oligos listed)]”, the activity in data set [9] was 32%; in data set [10], 70%.

As to factor Xa, the “protease digestion of the unmodified nuclease” value (in the data set with CLEAVASE BN nuclease; in data set [11]) was “Both nuclease proteins were cut with factor Xa within the 5′ nuclease domain” each time.

For the substance duplex length 3 substrate, the results for the activity in data set [7] and in data set [8] were 29 per min and 1 per min, respectively.

Regarding duplex length 0 substrate, the activity in data set [7] and in data set [8] was 0 per min each time.

duplex length 4 substrate: the values for the activity in data set [7] and in data set [8] were 57 per min and 10 per min, respectively.

Consider thrombin, for which the “protease digestion of the unmodified nuclease” value (in the data set on CLEAVASE BN nuclease; in [11]) was “neither nuclease was digested with large amounts of thrombin” each time. Besides, the “thrombin digestion, SDS-PAGE with Coomassie stain” value in data set [12] is given as “CLEAVASE BN/thrombin nuclease is efficiently cleaved by thrombin”.
